From patent publication EP1189630B1
pKd: −log10 of the molar value.

Target: bovine hemoglobin (bovine) (UniProt P01966)
Test: solid-phase ligand binding assay (ELISA), hemoglobin-coated wells; one value printed for rHA2, RgpA and Kgp

UniProt P01966, sequence (P01966 2-142 limits assumed, chain 1 of 2): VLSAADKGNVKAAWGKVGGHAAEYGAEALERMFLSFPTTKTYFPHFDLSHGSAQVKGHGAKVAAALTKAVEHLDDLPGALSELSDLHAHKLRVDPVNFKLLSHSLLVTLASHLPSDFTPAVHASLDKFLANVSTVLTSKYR
UniProt P01966, sequence (P02070 whole entry, chain 2 of 2, further chain): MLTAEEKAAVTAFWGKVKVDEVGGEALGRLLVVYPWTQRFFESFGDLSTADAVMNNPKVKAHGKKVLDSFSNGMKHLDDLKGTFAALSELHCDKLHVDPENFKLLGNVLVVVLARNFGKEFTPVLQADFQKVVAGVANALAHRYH

polydomain Arg-gingipain RgpA isolated from P. gingivalis (ATCC 33277) (from UniProt P28784 228-991) (enzyme)
pKd: 8.68
